Assays:
[1] = Encapsulation efficiency of 125I-TGF-β1 in alginate beads; type: physicochemical
Protocol: Radioiodination of TGF-β1 : Radioiodination of TGF-β1 was completed in a 3.0-mL Eppendorf tube using a modified chloramine-T method (A. Tuong et al., "Site Specific Radioiodination of Recombinant Himdin," Annal. Biochem. 189:186-191 (1990)). To TGF-β1 (1 mg/1 mL) in 5 mMHCl, 10 μL of carrier-free Na^125 I (1.0 mCi) was added and mixed for 5 minutes. 100 μL of 0.1% chloramine-T was then added and, after vortexing for 60 seconds, the reaction was stopped by the addition of 100 μL of aqueous 0.1% mercaptoethanol followed by 100 μL of […]. ^125 I-TGF-β1 was diluted by adding 1.2 mL of citrate phosphate buffer (CPB), pH 2.6.
Free ^125 I was separated from ^125 I-TGF-β1 by gel filtration on a prepacked Sephadex G-25 column from Pharmacia (Uppsala, Sweden) preequilibrated with CPB. Twenty fractions of 0.5 mL each were collected, and aliquots were counted for activity using a γ-scintillation counter (Model 1185 GammaTrac; Tm Analytic; Elk Grove Village, IL). Separated ^125 I-TGF-β1 (S.A.=0.72 nCi/ng or 187 ng/μL was stored at 4° C. in 1.5 mL-Eppendofftubes. […]
Formation of Beads: 1.5 mL of the prebead mixture was drawn into a syringe equipped with a 30 G needle. […] If ^125 I-TGF-β1 was incorporated in the beads, calcium chloride was retained and counted for activity along with the 1.5 mL-Eppendoff tube to determine the % encapsulation of TGF-β1 in beads. […]

[2] = system: proliferating cell nuclear antigen (PCNA); assay: Cell proliferation in intestinal crypts (PCNA immunohistochemistry, proliferating index); type: in vivo, Sprague-Dawley rats; settings: TGF-β1 I.P. or P.O. in PBS
Protocol: Adult male Sprague-Dawley rats (250±30 g) were caged individually and handled according to the guidelines of American Association for the Accreditation of Laboratory Animal Care (AAALAC). For peroral administration of TGF-β1, the rats were anesthetized with intramuscularly injected ketamine-HCl (40 mg/kg) (Vetalar®, Aveco Inc., Fort Dodge, Iowa) and a catheter was inserted into the stomach perorally to exclude the failure of the formulation to reach stomach and intestine. Intraperitoneal injections were performed into the lower right quadrant of the abdomen. […]
Cell proliferation was quantified using immunohistochemical techniques for detecting proliferating cell nuclear antigen (PCNA), an endogenous marker of proliferating cells. […] The proliferating index (PI) was calculated as the number of epithelial cells in G1, S, G2 or M phase of the cell cycle per length (ram) of crypts counted. Four 0.25 mm areas (1 mm total) were scored for cell proliferation.

In the case of “TGF-β1: TGF-β1 (1 mg/mL in 5 mM HCl) obtained from Bristol-Myers Squibb (Seattle, WA)”, the “Encapsulation efficiency of TGF-β1 in alginate beads” value ([1]; prebead mixtures made in polypropylene tubes, most preparations) is reported as “greater than 97.5%”, the “Loss of TGF-β1” value ([1]; use of glass vials) is reported as “more than 98%” and the PCNA staining [2] is reported as “moderate staining”.
